The text below walks through data of FireProtDB (doi:10.1073/pnas.88.5.1706).

Sequences and labels used below:
B1: DNA-Binding protein, P69542 (parent)
chain: MIKVEIKPSQAQFTTRSGVSRQGKPYSLNEQLCYVDLGNEYPVLVKITLDEGQPAYAPGLYTVHLSSFKVGQFGSLMIDRLRLVPAK

The variants in this data set derive from B1. As to conditions: Enterobacteria phage fd; pH 7; 25 °C; GdnHCl; CD; MOPS 50 mM; NaCl 100 mM; reversible: yes; structure 1VQB; whole UniProt chain shown.

V35F I47L: the “ddG of mutation (higher = less stable)” value came out at 4.1 kcal/mol, the denaturant m value was 3.9 kcal/mol/M, the “denaturant midpoint (higher = more stable)” value (“denaturant midpoint” for short) stood at 1.51 M and the unfolding free energy amounted to 4.9 kcal/mol.

For the variant V35I, the “ddG of mutation (higher = less stable)” value is 0.6 kcal/mol, the denaturant m value amounted to 3.6 kcal/mol/M, the “denaturant midpoint” value stood at 2.44 M and the unfolding free energy is 8.4 kcal/mol.

Take V35A: the “ddG of mutation (higher = less stable)” value was 2.2 kcal/mol, the denaturant m value turned out to be 3.9 kcal/mol/M, the “denaturant midpoint” value is 2.01 M and the unfolding free energy is 6.9 kcal/mol.

Regarding V35M, the “ddG of mutation (higher = less stable)” value came out at 1 kcal/mol, the denaturant m value turned out to be 3.6 kcal/mol/M, the “denaturant midpoint” value worked out at 2.33 M and the unfolding free energy amounted to 8 kcal/mol.

Turning to V35L, the “ddG of mutation (higher = less stable)” value came out at 2.7 kcal/mol, the denaturant m value was determined as 4.5 kcal/mol/M, the “denaturant midpoint” value is 1.9 M and the unfolding free energy was 6.4 kcal/mol.

For the variant V35C, the “ddG of mutation (higher = less stable)” value was determined as 1.4 kcal/mol, the denaturant m value turned out to be 4.1 kcal/mol/M, the “denaturant midpoint” value came out at 2.21 M and the unfolding free energy turned out to be 7.7 kcal/mol.

As for V35F, the “ddG of mutation (higher = less stable)” value worked out at 3.1 kcal/mol, the denaturant m value worked out at 3.8 kcal/mol/M, the “denaturant midpoint” value stood at 1.76 M and the unfolding free energy was 5.9 kcal/mol.

On to V35A I47V, for which the “ddG of mutation (higher = less stable)” value was 4.4 kcal/mol, the denaturant m value was 4.5 kcal/mol/M, the “denaturant midpoint” value stood at 1.5 M and the unfolding free energy worked out at 4.6 kcal/mol.

With V35A I47M, the “ddG of mutation (higher = less stable)” value is 4.4 kcal/mol, the denaturant m value came to 4.2 kcal/mol/M, the “denaturant midpoint” value worked out at 1.47 M and the unfolding free energy was found to be 4.6 kcal/mol.

For the variant V35A I47L, the “ddG of mutation (higher = less stable)” value worked out at 2.9 kcal/mol, the denaturant m value was 4.5 kcal/mol/M, the “denaturant midpoint” value worked out at 1.85 M and the unfolding free energy turned out to be 6.1 kcal/mol.

For the variant V35I I47F, the “ddG of mutation (higher = less stable)” value was found to be 2 kcal/mol, the denaturant m value amounted to 4.4 kcal/mol/M, the “denaturant midpoint” value was 2.05 M and the unfolding free energy worked out at 7 kcal/mol.

In the case of V35I I47L, the “ddG of mutation (higher = less stable)” value amounted to 1.1 kcal/mol, the denaturant m value is 4.2 kcal/mol/M, the “denaturant midpoint” value turned out to be 2.27 M and the unfolding free energy was 7.9 kcal/mol.

Consider V35I I47M, for which the “ddG of mutation (higher = less stable)” value is 2.8 kcal/mol, the denaturant m value was 4.2 kcal/mol/M, the “denaturant midpoint” value stood at 1.87 M and the unfolding free energy was found to be 6.3 kcal/mol.

For V35I I47V, the “ddG of mutation (higher = less stable)” value was found to be 3 kcal/mol, the denaturant m value amounted to 4.1 kcal/mol/M, the “denaturant midpoint” value came out at 1.8 M and the unfolding free energy was 6 kcal/mol.

Take V35M I47L: the “ddG of mutation (higher = less stable)” value was found to be 1.6 kcal/mol, the denaturant m value came to 4.1 kcal/mol/M, the “denaturant midpoint” value worked out at 2.14 M and the unfolding free energy was 7.4 kcal/mol.

Consider V35M I47F, for which the “ddG of mutation (higher = less stable)” value amounted to 2.3 kcal/mol, the denaturant m value worked out at 4.7 kcal/mol/M, the “denaturant midpoint” value is 1.99 M and the unfolding free energy came to 6.8 kcal/mol.

In the case of V35M I47M, the “ddG of mutation (higher = less stable)” value was determined as 3.5 kcal/mol, the denaturant m value was 3.8 kcal/mol/M, the “denaturant midpoint” value amounted to 1.65 M and the unfolding free energy is 5.5 kcal/mol.

With I47A, the “ddG of mutation (higher = less stable)” value is 7 kcal/mol, the denaturant m value was determined as 4.3 kcal/mol/M, the “denaturant midpoint” value came out at 0.87 M and the unfolding free energy was determined as 2 kcal/mol.

As to I47V, the “ddG of mutation (higher = less stable)” value was 2.5 kcal/mol, the denaturant m value is 3.9 kcal/mol/M, the “denaturant midpoint” value stood at 1.91 M and the unfolding free energy was determined as 6.5 kcal/mol.

Consider I47M, for which the “ddG of mutation (higher = less stable)” value is 2.1 kcal/mol, the denaturant m value was 3.9 kcal/mol/M, the “denaturant midpoint” value worked out at 2.02 M and the unfolding free energy amounted to 6.9 kcal/mol.

On to I47L, for which the “ddG of mutation (higher = less stable)” value was found to be 0.6 kcal/mol, the denaturant m value was found to be 3.7 kcal/mol/M, the “denaturant midpoint” value came out at 2.43 M and the unfolding free energy turned out to be 8.4 kcal/mol.

For the variant V35L I47V, the “ddG of mutation (higher = less stable)” value is 5 kcal/mol, the denaturant m value was determined as 4.2 kcal/mol/M, the “denaturant midpoint” value is 1.32 M and the unfolding free energy turned out to be 4 kcal/mol.

On to V35L I47M, for which the “ddG of mutation (higher = less stable)” value came out at 5.3 kcal/mol, the denaturant m value is 5 kcal/mol/M, the “denaturant midpoint” value amounted to 1.37 M and the unfolding free energy stood at 3.7 kcal/mol.

With V35L I47F, the “ddG of mutation (higher = less stable)” value amounted to 3.94 kcal/mol, the denaturant m value is 4.3 kcal/mol/M, the “denaturant midpoint” value is 1.6 M and the unfolding free energy is 5.1 kcal/mol.

For V35L I47L, the “ddG of mutation (higher = less stable)” value is 3.5 kcal/mol, the denaturant m value was determined as 4.3 kcal/mol/M, the “denaturant midpoint” value came out at 1.7 M and the unfolding free energy turned out to be 5.5 kcal/mol.

For the variant V35C I47C, the “ddG of mutation (higher = less stable)” value turned out to be 7.1 kcal/mol, the denaturant m value worked out at 4.9 kcal/mol/M, the “denaturant midpoint” value was 0.99 M and the unfolding free energy came to 1.9 kcal/mol.
